Assay results as given in article PMC10981688, “PCSK9 stimulates Syk, PKCδ, and NF-κB, leading to atherosclerosis progression independently of LDL receptor” (Nature Communications, 2024).

Key:
Conditions in all cases: both partners purified
[1] = target: T1, recombinant human PCSK9 with 6x His tag (proprotein convertase subtilisin/kexin type-9) (human, UniProt Q8NBP7 31-692); assay: BLI; BLItz system; PCSK9-His (hPCSK9, 500 nM, 120 s loading) immobilised on an anti-Penta-HIS sensor; association 120 s, dissociation 120 s; sensorgrams fit globally to a 1:1 binding model
T1 construct: proprotein convertase subtilisin/kexin type-9 (PCSK9), human, recombinant; written here as one chain; also called rhPCSK9-His; PCSK9-His

[2] = target: T2, recombinant human PKCδ (protein kinase C delta) (human, UniProt Q05655 1-676); assay: BLI; BLItz system; CAP1-mFc immobilised on an anti-mouse IgG Fc (AMC) sensor; Syk or PKCδ in the association step (120 s), dissociation 120 s; global 1:1 binding model
T2 construct: protein kinase C delta (PKCδ), human, recombinant; also called rhPKCδ; source: bought: Abcam (ab60844)
T2 sequence (Q05655 whole entry, stated change not applied): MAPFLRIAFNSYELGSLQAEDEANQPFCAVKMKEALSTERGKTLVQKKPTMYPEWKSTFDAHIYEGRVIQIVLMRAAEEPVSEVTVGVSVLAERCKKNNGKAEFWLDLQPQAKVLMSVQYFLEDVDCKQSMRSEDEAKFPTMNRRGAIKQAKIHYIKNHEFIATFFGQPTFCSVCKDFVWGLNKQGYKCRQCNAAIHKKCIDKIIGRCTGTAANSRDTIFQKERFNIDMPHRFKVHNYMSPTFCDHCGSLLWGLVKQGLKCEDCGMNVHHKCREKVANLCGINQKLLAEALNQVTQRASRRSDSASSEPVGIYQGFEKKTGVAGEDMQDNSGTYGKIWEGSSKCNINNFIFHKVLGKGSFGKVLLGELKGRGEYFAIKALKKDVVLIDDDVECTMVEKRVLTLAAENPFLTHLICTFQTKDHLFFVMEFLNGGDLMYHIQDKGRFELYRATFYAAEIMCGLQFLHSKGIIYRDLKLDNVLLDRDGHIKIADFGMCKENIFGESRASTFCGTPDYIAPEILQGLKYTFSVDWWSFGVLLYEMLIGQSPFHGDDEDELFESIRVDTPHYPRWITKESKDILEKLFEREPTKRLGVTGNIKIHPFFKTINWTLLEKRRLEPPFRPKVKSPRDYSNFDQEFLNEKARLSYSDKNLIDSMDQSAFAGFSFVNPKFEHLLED

[3] = target: T3, recombinant human Syk (spleen tyrosine kinase) (human, UniProt P43405 1-635); assay: as above
T3 construct: spleen tyrosine kinase (Syk), human, recombinant; also called rhSyk; source: bought: Abcam (ab60886)

Kd [1] [nM] | Kd [2] [nM] | Kd [3] [nM] | Binder
32 | – | – | recombinant human CAP1 (adenylyl cyclase-associated protein 1) (natural protein, UniProt Q01518 1-475, looked up, adenylyl cyclase-associated protein 1 (CAP1), human, recombinant; also called rhCAP1; hCAP1; source: bought: Abnova (H00010487-P01)) MADMQNLVERLERAVGRLEAVSHTSDMHRGYADSPSKAGAAPYVQAFDSLLAGPVAEYLKISKEIGGDVQKHAEMVHTGLKLERALLVTASQCQQPAENKLSDLLAPISEQIKEVITFREKNRGSKLFNHLSAVSESIQALGWVAMAPKPGPYVKEMNDAAMFYTNRVLKEYKDVDKKHVDWVKAYLSIWTELQAYIKEFHTTGLAWSKTGPVAKELSGLPSGPSAGSCPPPPPPCPPPPPVSTISCSYESASRSSLFAQINQGESITHALKHVSDDMKTHKNPALKAQSGPVRSGPKPFSAPKPQTSPSPKRATKKEPAVLELEGKKWRVENQENVSNLVIEDTELKQVAYIYKCVNTTLQIKGKINSITVDNCKKLGLVFDDVVGIVEIINSKDVKVQVMGKVPTISINKTDGCHAYLSKNSLDCEIVSAKSSEMNVLIPTEGGDFNEFPVPEQFKTLWNGQKLVTTVTEIAG
– | 322 | 5.96 | human CAP1 whose carboxyl-terminal end was conjugated with the Fc region of mouse immunoglobulin (Fc fusion, UniProt Q01518 1-475, looked up, adenylyl cyclase-associated protein 1 (CAP1), human; also called CAP1-mFc; hCAP1-mFc; source: Expi293F, transfected, purified to homogeneity; not shown: Fc (mouse immunoglobulin), C-terminal, kept) MADMQNLVERLERAVGRLEAVSHTSDMHRGYADSPSKAGAAPYVQAFDSLLAGPVAEYLKISKEIGGDVQKHAEMVHTGLKLERALLVTASQCQQPAENKLSDLLAPISEQIKEVITFREKNRGSKLFNHLSAVSESIQALGWVAMAPKPGPYVKEMNDAAMFYTNRVLKEYKDVDKKHVDWVKAYLSIWTELQAYIKEFHTTGLAWSKTGPVAKELSGLPSGPSAGSCPPPPPPCPPPPPVSTISCSYESASRSSLFAQINQGESITHALKHVSDDMKTHKNPALKAQSGPVRSGPKPFSAPKPQTSPSPKRATKKEPAVLELEGKKWRVENQENVSNLVIEDTELKQVAYIYKCVNTTLQIKGKINSITVDNCKKLGLVFDDVVGIVEIINSKDVKVQVMGKVPTISINKTDGCHAYLSKNSLDCEIVSAKSSEMNVLIPTEGGDFNEFPVPEQFKTLWNGQKLVTTVTEIAG
